Tested on: MS2 coat protein
Assay: apparent KD of MS2 coat protein; designed switch direction (-1 OFF switch, 1 ON switch): -1; higher = weaker reporter binding
How it was run: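 The apparent KD reported per design is the median over clusters of curve fits to normalised cluster fluorescence. The RNA switches were transcribed on Illumina chips by stalled E. coli RNA polymerase. SNAP-549-labelled MS2 coat protein was titrated from 0.7 or 1.5 nM, doubling up to 3 µM, in Tris-HCl pH 7.5 buffer containing KCl, MgCl2, BSA, DTT, tRNA and Tween-20, with no input, 200 uM small-molecule ligand, or an oligonucleotide input.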

[1] = input ligand: microRNA oligo, concentration not stated
[2] = Eterna round: R95, input ligand: microRNA oligo, concentration not stated

Row | Sequence | apparent KD of MS2 coat protein (input ligand: FMN 200 uM) | apparent KD of MS2 coat protein [1] | apparent KD of MS2 coat protein (input ligand: none) | apparent KD of MS2 coat protein (Eterna round: R95, input ligand: FMN 200 uM) | apparent KD of MS2 coat protein [2] | apparent KD of MS2 coat protein (Eterna round: R95, input ligand: none)
1 | GCGGACUUGAACGUGAGUUCAGAGACAUGAGGAUCACCCAUGUAGGAUAUCGAUUCGAAACGAAUCGAGAAGGGCAUGGUCCGC [JL denovo 14] (Eterna round: R96, puzzle: Exclusion NG 3) | 37.4 nM | 21.3 nM | 28.8 nM |  |  | 
2 | GCGUGGCGUAAGGAUAUCCAUACGGUAUAACCGGGAGAAGGUACGACAUGAGGAUCACCCAUGUGGCCUGGAAA [Sorimaat] (Eterna round: R97, puzzle: Exclusion 6) | 64.4 nM |  | 22.2 nM |  |  | 
3 | GCGUUCUGAGGAUAUACAUGAGGAUCACCCAUGUUGAGAAUUAGGUAUAAGGGAUUUUGUAGAAGGCAGAGUGC [JR_Ex3_Sub072] (Eterna round: R97, puzzle: Exclusion 3) | 228 nM |  | 59.9 nM |  |  | 
4 | GCUAGGAGUGUGAGGAUAUGCUGUUCCUUGGAACAGCAGAAGGCACAUGAGGAUCACCCAUGUGAAGACCUAGC [Mat - Exclusion 4 - JL Mod - D3] (Eterna round: R97, puzzle: Brourd's mod of Exclusion 4) | 149 nM |  | 24.5 nM |  |  | 
5 | GCUCGCGGGCAAGGAUAUCCUACGCUGUUCUGGUUCGUGUCUGUUACAUGAGGAUCACCCAUGUGGGAGAAGGUGCACCAGGGC [Design 48] (Eterna round: R96, puzzle: Exclusion NG 2) | 13.7 nM | 9.98 nM | 14.7 nM |  |  | 
6 | GCUGCAUCAGGAUAUAUACGGUAUCACAUGAGGAUCACCCAUGUUCGUGUGGAACUGAACGUAGAAGGGAUUAGAU [Aramaa] (puzzle: Exclusion 5) |  |  |  | 31.1 nM | 28.3 nM | 24.5 nM
7 | GCUGCGCGAGGAUAUGCGGUUUGUGCUUUGGCCCGUGGCGUACAUGAGGAUCACCCAUGUAGAAGGCGUGUGGG [Apr-15 SS2-53] (puzzle: Exclusion 2) |  |  |  |  | 18.1 nM | 
8 | GCUGGUCGAGGAUAUACAUGAGGAUCACCCAUGUAGAUCAACCAGCGAUAGCUGGAAUGUAGAAGGUGACCAGC [E3/5-B1] (Eterna round: R97, puzzle: Exclusion 3) | 21.9 nM |  | 15.9 nM |  |  | 
9 | GCUGGUCGAGGAUAUACAUGAGGAUCACCCAUGUGAUUAGCAGUCCUCGGACUGCAAUGUAGAAGGCGACCAGC [E3/2-A1] (Eterna round: R97, puzzle: Exclusion 3) | 620 nM |  | 439 nM |  |  | 
10 | GCUUAUAGAGGAUAUACAGAUUAUUACAUGAGGAUCACCCAUGUUCUUCAAUGUAUAUAUGUAGAAGGCUAAGGAG [Mat - Exclusion 5 - JL Mod - D11] (Eterna round: R97, puzzle: Exclusion 5) | 175 nM |  | 63.2 nM |  |  | 
11 | GCUUGUAGAGGAUAUACGAGGGCCCGAGCGGAUAACACCGCACAUGAGGAUCACCCAUGUAGAAGGCUACUAUU [JL-ex2-4.18 ViennaUCT mod] (Eterna round: R97, puzzle: Exclusion 2) | 96 nM |  | 105 nM |  |  | 
12 | GCUUGUGCCCUAGGAUAUCGCCCAGCCAAUGGAUGAGAAGGAGGCGGGUGAAACAUGAGGAUCACCCAUGUAAACGCACAGGCG [Erdiusbi] (Eterna round: R96, puzzle: Exclusion NG 1) | 189 nM | 18 nM | 21.9 nM |  |  | 
13 | GGAAAAAUAUAGGAUAUGGGAGGGAGGACCGAACCAGAAGGAUAGACAUGAGGAUCACCCAUGUAAAGAUCCUC [AK-MS2ROC-r4-exclusion6-6] (Eterna round: R97, puzzle: Exclusion 6) | 377 nM |  | 204 nM |  |  | 
